Source: patent publication US20240270821A1, “GIP/GLP1/GCG TRI-RECEPTOR AGONISTS AND USES THEREOF” (priority 2023, published 2024)
Starred links: 1 amine or outer side, 2 acyl side, 3 side chain; linkers in the order of their positions; H or OH if unused. Non-standard residues stand in square brackets, D forms with d. Groups on a side chain read outwards from the residue. No end group written: not given here. *: point of attachment. C18 diacid = O=C(O)CCCCCCCCCCCCCCCCC(=O)*; γGlu = O=C(O)[C@H](CCC(=O)[*:2])N[*:1]; αMe4Pal = C[C@](N)(Cc1ccncc1)C(=O)O; 4Pal = N[C@@H](Cc1ccncc1)C(=O)O; αMeL = CC(C)C[C@](C)(N)C(=O)O; Orn = NCCC[C@H](N)C(=O)O; Dab = NCC[C@H](N)C(=O)O; Aib = CC(C)(N)C(=O)O

T1: human GIP receptor (human) (UniProt P48546)
T1 sequence (looked up): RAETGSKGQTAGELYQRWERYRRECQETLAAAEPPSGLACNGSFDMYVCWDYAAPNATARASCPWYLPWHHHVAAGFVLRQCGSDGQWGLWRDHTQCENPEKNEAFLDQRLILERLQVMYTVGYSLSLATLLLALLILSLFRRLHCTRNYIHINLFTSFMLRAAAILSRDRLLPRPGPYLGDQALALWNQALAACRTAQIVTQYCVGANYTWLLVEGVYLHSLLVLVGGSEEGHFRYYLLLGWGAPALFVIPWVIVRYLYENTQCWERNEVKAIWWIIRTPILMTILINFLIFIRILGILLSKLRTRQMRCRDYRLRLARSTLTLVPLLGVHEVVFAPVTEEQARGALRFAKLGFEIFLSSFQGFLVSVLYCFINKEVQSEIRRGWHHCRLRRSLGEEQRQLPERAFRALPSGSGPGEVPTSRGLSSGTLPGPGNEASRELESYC

B1: Example 1053 (peptide)
chain: YXQGTFTSDFSXXLDXKAQXAFIEXLLAGGPSSGAPPPEGSEE
modifications: non-natural residues, (γGlu)2-C18 diacid lysine acylation, C-terminal amide; synthetic construct; SITE 2: note = 2-Aminoisobutyric Acid; SITE 12: note = L-ornithine; SITE 13: note = alpha-methyl-leucine; SITE 16: note = L-ornithine; SITE 17: note = Lysine is chemically modified through conjugation of the epsilon-amino group of the Lysine side chain with (gamma-Glu)2-CO-(CH2)
B2: Example 1062 (peptide)
chain: YXQGTFTSDXSXXLDXKAQXAFIEYLIAGGPSSGAPPPSGSEE
modifications: C-terminal amide; lysine acylated with (Glu)2-γ-Glu-C18 diacid; synthetic construct; SITE 2: note = 2-Aminoisobutyric Acid; SITE 10: note = 3-(4-Pyridyl)-L-alanine; SITE 12: note = L-ornithine; SITE 13: note = alpha-methyl-leucine; SITE 16: note = L-ornithine; SITE 17: note = Lysine is chemically modified through conjugation of the epsilon-amino group of the Lys
B3: Example 1059 (peptide)
chain: YXQGTFTSDXSXXLDXKAQXAFIEYLIAGGPSSGAPPPSGSEE
modifications: acylated Lys, C-terminal amide, non-natural residues; synthetic construct; SITE 2: note = 2-Aminoisobutyric Acid; SITE 10: note = 3-(4-Pyridyl)-L-alanine; SITE 12: note = L-ornithine; SITE 13: note = alpha-methyl-leucine; SITE 16: note = L-ornithine; SITE 17: note = Lysine is chemically modified through conjugation of the epsilon-amino group of the Lys
B4: Example 1070 (peptide)
chain: YXQGTFTSDXSQXLDXKAQXAFIEXLIEGGPSSGAPPPSGSEE
modifications: Aib, 4Pal, αMeL, Orn, Me4Pal, αMeY; acylated Lys; C-terminal amide; synthetic construct; SITE 2: note = 2-Aminoisobutyric Acid; SITE 10: note = 3-(4-Pyridyl)-L-alanine; SITE 13: note = alpha-methyl-leucine; SITE 16: note = L-ornithine; SITE 17: note = Lysine is chemically modified through conjugation of the epsilon-amino group of the Lysine side chain with D-Glutami
B5: Example 1056 (peptide)
chain: YXQGTFTSDXSQXLDXKAQXAFIEYLLAGGPSSGAPPPSGSEE
modifications: non-natural residues; lipidated Lys; C-terminal amide; synthetic construct; SITE 2: note = 2-Aminoisobutyric Acid; SITE 10: note = 3-(4-Pyridyl)-L-alanine; SITE 13: note = alpha-methyl-leucine; SITE 16: note = L-ornithine; SITE 17: note = Lysine is chemically modified through conjugation of the epsilon-amino group of the Lysine side chain with (gamma-Gl)
B6: Example 1067 (peptide)
chain: YXQGTFTSDXSXXLDXKAQXAFIEXLLEGGPSSGAPPPSGSEE
modifications: non-natural residues; lysine acylated with C18 diacid; C-terminal amide; synthetic construct; SITE 2: note = 2-Aminoisobutyric Acid; SITE 10: note = 3-(4-Pyridyl)-L-alanine; SITE 12: note = L-ornithine; SITE 13: note = alpha-methyl-leucine; SITE 16: note = L-ornithine; SITE 17: note = Lysine is chemically modified through conjugation of the epsilon-amino group of the Lys
B7: Example 1064 (peptide)
chain: YXQGTFTSDXSXXLDXKAQXAFIEXLLEGGPSSGAPPPSGSEE
modifications: Aib, 4Pal, Orn, αMeL, αMeY; lysine acylated C18 diacid; amide; synthetic construct; SITE 2: note = 2-Aminoisobutyric Acid; SITE 10: note = 3-(4-Pyridyl)-L-alanine; SITE 12: note = L-ornithine; SITE 13: note = alpha-methyl-leucine; SITE 16: note = L-ornithine; SITE 17: note = Lysine is chemically modified through conjugation of the epsilon-amino group of the Lys
B8: Example 103 (peptide)
chain: YXQGTFTSDFSXXLDKKAQXAFIEWLLAGGPSSGEPPPSGE
modifications: synthetic construct; SITE 2: note = 2-Aminoisobutyric Acid; SITE 12: note = L-ornithine; SITE 13: note = alpha-methyl-leucine; SITE 17: note = Lysine is chemically modified through conjugation of the epsilon-amino group of the Lysine side chain with (2-[2-(2-Amino-ethoxy)-ethoxy]-acetyl)-(gamma-Glu)
B9: Example 1054 (peptide)
chain: Y[Aib]QGTFTSD[4Pal]S[Dab][αMeL]LD[Orn]K([γGlu-γGlu-C18 diacid])AQ[Aib]AFIE[αMe4Pal]LLAGGPSSGAPPPEGSEE-NH2
B10: Example 1071 (peptide)
chain: YXQGTFTSDXSQXLDXKAQXAFIEXLIEGGPSSGAPPPSGSEEE
modifications: acylated Lys e-γGlu-C18 diacid; non-natural residues; C-terminal amide; synthetic construct; SITE 2: note = 2-Aminoisobutyric Acid; SITE 10: note = 3-(4-Pyridyl)-L-alanine; SITE 13: note = alpha-methyl-leucine; SITE 16: note = L-ornithine; SITE 17: note = Lysine is chemically modified through conjugation of the epsilon-amino group of the Lysine side chain with D-Glutami
B11: Example 1076 (peptide)
chain: YXQGTFTSDXSQXLDXKAQXAFIQXLIEGGPSSGAPPPSGSEEE
modifications: non-natural residues (Aib, 4Pal, Orn, Me4Pal, αMeY); lipidated K; amide; synthetic construct; SITE 2: note = 2-Aminoisobutyric Acid; SITE 10: note = 3-(4-Pyridyl)-L-alanine; SITE 13: note = alpha-methyl-leucine; SITE 16: note = L-ornithine; SITE 17: note = Lysine is chemically modified through conjugation of the epsilon-amino group of the Lysine side chain with D-Glutami
B12: Example 1073 (peptide)
chain: YXQGTFTSDXSQXLDXKAQXAFIQXLIEGGPSSGAPPPSGSEEE
modifications: non-natural residues, acylated Lys (γGlu-C18 diacid), C-terminal amide; synthetic construct; SITE 2: note = 2-Aminoisobutyric Acid; SITE 10: note = 3-(4-Pyridyl)-L-alanine; SITE 13: note = alpha-methyl-leucine; SITE 16: note = L-ornithine; SITE 17: note = Lysine is chemically modified through conjugation of the epsilon-amino group of the Lysine side chain with D-Glutami
B13: Example 1077 (peptide)
chain: YXQGTFTSDXSQXLDXKAQXAFIQXLIEGGPSSGAPPPSGSEEE
modifications: Glu-γGlu-C18 diacid on Lys; non-natural residues; amide; synthetic construct; SITE 2: note = 2-Aminoisobutyric Acid; SITE 10: note = 3-(4-Pyridyl)-L-alanine; SITE 13: note = alpha-methyl-leucine; SITE 16: note = L-ornithine; SITE 17: note = Lysine is chemically modified through conjugation of the epsilon-amino group of the Lysine side chain with (Glu)-(ga)
B14: Example 1081 (peptide)
chain: YXQGTFTSDXSQXLDXKAQXQFIEXLIAGGPSSGAPPPSGSEEE
modifications: Aib, 4Pal, Orn, Me4Pal, alpha-methyl-Tyr, lipidated Lys, amide; synthetic construct; SITE 2: note = 2-Aminoisobutyric Acid; SITE 10: note = 3-(4-Pyridyl)-L-alanine; SITE 13: note = alpha-methyl-leucine; SITE 16: note = L-ornithine; SITE 17: note = Lysine is chemically modified through conjugation of the epsilon-amino group of the Lysine side chain with D-Glutami

Tests used:
Assay in all cases: cell-based or functional assay
[1] = target: human glucagon receptor (human) (UniProt P47871)
Chain of human glucagon receptor (human) (P47871 26-477): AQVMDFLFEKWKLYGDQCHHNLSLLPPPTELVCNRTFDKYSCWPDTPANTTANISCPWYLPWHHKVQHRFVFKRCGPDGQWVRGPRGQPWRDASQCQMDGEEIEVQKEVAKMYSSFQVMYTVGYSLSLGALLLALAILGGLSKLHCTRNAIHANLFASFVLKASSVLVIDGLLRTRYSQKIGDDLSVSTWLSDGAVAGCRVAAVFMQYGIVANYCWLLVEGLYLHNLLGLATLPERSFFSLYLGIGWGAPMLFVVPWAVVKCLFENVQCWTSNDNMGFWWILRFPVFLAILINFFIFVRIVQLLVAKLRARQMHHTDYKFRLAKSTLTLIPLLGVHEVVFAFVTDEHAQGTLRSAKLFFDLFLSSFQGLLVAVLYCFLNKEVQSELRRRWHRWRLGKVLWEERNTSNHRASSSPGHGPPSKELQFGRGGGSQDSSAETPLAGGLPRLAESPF

hGLP-1R = hGLP-1R (Homo sapiens, UniProt P43220)
Chain of hGLP-1R (P43220 24-463): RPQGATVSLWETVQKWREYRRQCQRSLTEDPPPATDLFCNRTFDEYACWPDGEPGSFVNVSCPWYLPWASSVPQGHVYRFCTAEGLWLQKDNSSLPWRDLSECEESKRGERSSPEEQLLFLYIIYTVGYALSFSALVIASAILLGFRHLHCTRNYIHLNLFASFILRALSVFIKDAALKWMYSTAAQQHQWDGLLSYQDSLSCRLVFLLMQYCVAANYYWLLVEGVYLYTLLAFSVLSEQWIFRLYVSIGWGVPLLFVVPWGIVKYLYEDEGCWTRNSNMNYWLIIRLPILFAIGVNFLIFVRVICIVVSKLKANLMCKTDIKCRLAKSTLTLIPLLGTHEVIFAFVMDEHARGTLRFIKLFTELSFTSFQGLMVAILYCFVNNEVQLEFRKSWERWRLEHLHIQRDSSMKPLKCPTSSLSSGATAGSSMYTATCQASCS

[2] = target: T1, human GIP receptor (human)

Binder	Relative cAMP EC50 [1] [nM]	cAMP Rel EC50 (1% HSA) [1] [nM]	Relative cAMP EC50 (hGLP-1R) [nM]	Relative cAMP EC50 [2] [nM]	cAMP Rel EC50 (1% HSA) [2] [nM]	cAMP Rel EC50 (1% HSA) (hGLP-1R) [nM]	cAMP Rel EC50, nM (in the presence of 1% HSA) [1] [nM]	cAMP Rel EC50, nM (in the presence of 1% HSA) (hGLP-1R) [nM]	cAMP Rel EC50, nM (in the presence of 1% HSA) [2] [nM]
B1	10.4	3470	6.2	0.123	19.3	–	–	–	–
B2	8.77	2380	7.75	0.726	67.5	–	–	–	–
B3	7.52	748	4.61	0.468	48.9	–	–	–	–
B4	20.2	1940	1.54	0.167	27.3	321	–	–	–
B5	3.98	1650	4.25	0.0929	29.6	–	–	–	–
B6	12.6	1860	17.6	0.471	86.4	2610	–	–	–
B7	13.7	1940	7.89	0.556	62.5	912	–	–	–
B8	10.5	–	3.27	0.2	–	–	2590	482	35.1
B9	8.06	1630	9.53	0.797	79.4	–	–	–	–
B10	23.5	2990	2.06	0.261	40.2	425	–	–	–
B11	59	1650	1.47	0.174	20.2	187	–	–	–
B12	12.3	1490	1.09	0.201	15.7	114	–	–	–
B13	18.8	3160	1.48	0.23	27.8	408	–	–	–
B14	19.7	2130	1.29	0.105	8.44	151	–	–	–
